B1: Copia^Gag capsid protein (wild type), auto-processed from His6-SUMO-Copia^Gag+PR (natural protein)
chain: not shown
notes: Copia retrotransposon Gag (capsid CA, residues 1-186, and nucleocapsid NC, residues 186-270), Drosophila; product of auto-processing of the short spliced form Copia^Gag+PR, whose protease part is cut off in E. coli; Limits 1-270 put together from the stated CA (1-186) and NC (186-270) domains; the cleavage site between Gag and PR is not otherwise stated; Carries co-purified RNA unless this is …
B2: Copia^GagΔNC (domain or fragment)
chain: not shown
notes: Copia retrotransposon Gag, Drosophila, capsid (CA) region only; residue H186 mutated to a stop codon in the pSMT3_His6-SUMO-Copia^Gag+PR plasmid, so the chain ends at residue 185 and lacks the NC (Zn-finger) domain; also called Copia^gag-ΔNC variant; not shown: His6-SUMO, N-terminal, cleaved

Series [1] concerns the molecule itself. The experiment in a line: negative-stain EM; purified Copia^Gag after removal of His6-SUMO, with co-purified RNA, 0.8 mg/ml, 1% uranyl acetate; capsid-like particles of 30 nm to more than 120 nm.
The target of series [2] is B1. In words: SEC; Superose 6 Increase 10/300 GL after overnight Ulp1 digestion; 25 mM HEPES pH 7.4, 150 mM NaCl, 10% glycerol, 100 uM ZnCl2, 500 mM imidazole, 2 mM 2-mercaptoethanol; assembled capsids elute at fraction 7, unassembled protein at fractions 24 to 26. The following applies: both partners purified.

Experimental findings from publication PMC11835246, “Capsid transfer of the retrotransposon Copia controls structural synaptic plasticity in Drosophila” (PLOS Biology, 2025) are described below.

In the case of B1, the binding result in series [1] is listed as “binds”.

As for B2, the binding result in series [2] was “binds”.
